Assay results as given in article PMC3156817 (Nature Communications, 2011).

B1: ICSM-18 (antibody, V domains shown)
VH: EVQLQQSGPELVKPGSSVKISCKASRNTFTDYNLDWVKQSHGKTLEWIGNVYPNNGVTGYNQKFRGKATLTVDKSSSTAYMELHSLTSEDSAVYYCALYYYDVSYWGQGTLVTVSS
VL: QIVLTQSPAIMSASPGEKVTMTCSASSSVSYMHWYQQKSGTSPKRWIYDTSKLASGVPARFSGSGSGTSYSLTISSMEAEDAATYFCHQWRSNPYTFGGGTKLEIK

Columns and labels:
[1] = molecular target: huPrP23-231 (human) (UniProt P04156); assay: DELFIA
[2] = molecular target: huPrP23-231 (Homo sapiens, UniProt P04156); assay: DELFIA

| Molecule | Kd [1] [nM] | Kd [2] [nM] | Ki [2] [nM] |
| --- | --- | --- | --- |
| Aβ-derived diffusible ligands (ADDLs) prepared from Aβ1-42 (from UniProt P05067) (peptide) | 100 |  |  |
| bADDLs prepared from biotinylated Aβ1-42 (bAβ1-42) (from UniProt P05067) (peptide) | 82 |  |  |
| B1 |  | ~10 | ~20 |
